# Test results taken from patent publication US20060062761A1.
# Target: HLA-DR DRB1*0701 on fixed MOU (MANN) cells (human)
# Test: competition
substance,measurement,value
Tetanus toxin 828-840 (from UniProt P04958 828-840),IC50,7 µM
